What was measured:
[1] = molecular target: the molecule itself; test: circular dichroism thermal melting at different concentrations; PBS pH 7.4; ellipticity at 222 nm, 2-80 °C, 2 °C/min; melting temperature rises with the concentration of NEMO_(CoZi) (20.2, 24.9, 28.5 °C); monomer to coiled-coil dimer
linear di-Ubiquitin = molecular target: T1, linear di-Ubiquitin (UniProt P0CG47 1-76; P0CG47 1-76); test: BLI; biotinylated NEMO_(CoZi) or NEMO_(CoZi)-Ub immobilised on streptavidin biosensors (~2 ug/mL); di-Ub at 2-225 uM; 25 °C; 100 s association, 100 s dissociation; 10 mM HEPES pH 7.4, 150 mM NaCl, 3 mM EDTA, 0.005% Tween-20; equilibrium analysis of response against di-Ub concentration; conditions: both partners purified
T1 construct: ubiquitin (1-76), distal unit of the linear (M1-linked) dimer; ubiquitin (1-76), proximal unit, its Met1 joined by a peptide bond to Gly76 of the first unit; also called linear diubiquitin chains

- Kd (linear di-Ubiquitin): 25 µM
B1: synthetic biotinylated mouse NEMO CoZi domain (NEMO_(CoZi)), 83-mer (domain or fragment)
chain: EDLRQQLQQAEEALVAKQELIDKLKEEAEQHKIVMETVPVLKAQADIYKADFQAERHAREKLVEKKEYLQEQLEQLQREFNKL
modifications: biotin on the N-terminus; C-terminal amide
notes: CoZi (coiled-coil and leucine zipper) domain of mouse NEMO, 83-mer; The unmodified peptide is the same 83-mer after Alloc removal, without the auxiliary; also called unmodified NEMO_(CoZi); source: synthetic peptide (solid-phase synthesis in a single piece, HPLC purified); not shown: biotin, N-terminal, kept
- binding result [1]: binds
